Reference: paper PMC5451165, “Cellular levels of Grb2 and cytoskeleton stability are correlated in a neurodegenerative scenario” (Disease Models & Mechanisms, 2017)

B1: NOX4, endogenous in SHSY-5Y cells (natural protein, human (endogenous in SHSY-5Y), UniProt Q9NPH5 1-578, looked up)
chain: MAVSWRSWLANEGVKHLCLFIWLSMNVLLFWKTFLLYNQGPEYHYLHQMLGLGLCLSRASASVLNLNCSLILLPMCRTLLAYLRGSQKVPSRRTRRLLDKSRTFHITCGVTICIFSGVHVAAHLVNALNFSVNYSEDFVELNAARYRDEDPRKLLFTTVPGLTGVCMVVVLFLMITASTYAIRVSNYDIFWYTHNLFFVFYMLLTLHVSGGLLKYQTNLDTHPPGCISLNRTSSQNISLPEYFSEHFHEPFPEGFSKPAEFTQHKFVKICMEEPRFQANFPQTWLWISGPLCLYCAERLYRYIRSNKPVTIISVMSHPSDVMEIRMVKENFKARPGQYITLHCPSVSALENHPFTLTMCPTETKATFGVHLKIVGDWTERFRDLLLPPSSQDSEILPFIQSRNYPKLYIDGPFGSPFEESLNYEVSLCVAGGIGVTPFASILNTLLDDWKPYKLRRLYFIWVCRDIQSFRWFADLLCMLHNKFWQENRPDYVNIQLYLSQTDGIQKIIGEKYHALNSRLFIGRPRWKLLFDEIAKYNRGKTVGVFCCGPNSLSKTLHKLSNQNNSYGTRFEYNKESFS
notes: NOX4, endogenous in human neuroblastoma SHSY-5Y cells, detected with an anti-NOX4 antibody; source: endogenous, SHSY-5Y cell lysate
B2: NOX4, endogenous in mouse brain (natural protein, mouse (endogenous in mouse brain), UniProt Q9JHI8 1-578, looked up)
chain: MAVSWRSWLANEGVKHLCLLIWLSLNVLLFWKTFLLYNQGPEYYYIHQMLGLGLCLSRASASVLNLNCSLILLPMCRTVLAYLRGSQKVPSRRTRRLLDKSKTLHITCGVTICIFSGVHVAAHLVNALNFSVNYSEDFLELNAARYQNEDPRKLLFTTIPGLTGVCMVVVLFLMVTASTYAIRVSNYDIFWYTHNLFFVFYMLLLLHVSGGLLKYQTNVDTHPPGCISLNQTSSQNMSIPDYVSEHFHGSLPRGFSKLEDRYQKTLVKICLEEPKFQAHFPQTWIWISGPLCLYCAERLYRCIRSNKPVTIISVINHPSDVMELRMIKENFKARPGQYIILHCPSVSALENHPFTLTMCPTETKATFGVHFKVVGDWTERFRDLLLPPSSQDSEILPFIHSRNYPKLYIDGPFGSPFEESLNYEVSLCVAGGIGVTPFASILNTLLDDWKPYKLRRLYFIWVCRDIQSFQWFADLLCVLHNKFWQENRPDFVNIQLYLSQTDGIQKIIGEKYHTLNSRLFIGRPRWKLLFDEIAKCNRGKTVGVFCCGPSSISKTLHSLSNRNNSYGTKFEYNKESFS
notes: NOX4, endogenous in mouse brain (APP/PS1 and WT mice), detected with an anti-NOX4 antibody; source: endogenous, protein extracted from paraffin-embedded brain sections of APP/PS1 (AD) and WT mice

Assays:
Details in all cases: partners not purified
[1] = biological target: T1, Growth factor receptor bound protein 2 (Grb2), endogenous in SHSY-5Y cells (human (endogenous in SHSY-5Y), UniProt P62993 1-217); test: co-IP; IP for Grb2 from cell lysate, blot with anti-NOX4 (reverse: IP for NOX4, blot with anti-Grb2); cells under control (GFP, DMSO, DsRed), AD-inducing (AICD, Aβ, DsRed), reversal (AICD, Aβ, Grb2-DsRed) and Grb2 knock-down (U6-Grb2) conditions
T1 construct: Grb2, endogenous in human neuroblastoma SHSY-5Y cells, precipitated with an anti-Grb2 antibody; source: endogenous, SHSY-5Y cell lysate

[2] = biological target: T2, Grb2-DsRed construct (UniProt P62993 1-217); test: as above
T2 construct: Grb2 cloned into a DsRed-C1 vector; In the transfected cells endogenous Grb2 is present too, and the anti-Grb2 antibody would precipitate both; A C1 vector usually places the fluorescent protein at the N-terminus; source: SHSY-5Y, transiently transfected, in lysate

[3] = biological target: T3, Grb2, endogenous in mouse brain (mouse (endogenous in mouse brain), UniProt Q60631 1-217); test: co-IP; Grb2 pull down from protein extracted from paraffinized brain sections of AD (APP/PS1) and WT mice, probed with anti-NOX4 antibody
T3 construct: Grb2, endogenous in mouse brain (APP/PS1 and WT mice), precipitated with an anti-Grb2 antibody; source: endogenous, protein extracted from paraffin-embedded brain sections of APP/PS1 (AD) and WT mice
T3 sequence (Q60631 whole entry): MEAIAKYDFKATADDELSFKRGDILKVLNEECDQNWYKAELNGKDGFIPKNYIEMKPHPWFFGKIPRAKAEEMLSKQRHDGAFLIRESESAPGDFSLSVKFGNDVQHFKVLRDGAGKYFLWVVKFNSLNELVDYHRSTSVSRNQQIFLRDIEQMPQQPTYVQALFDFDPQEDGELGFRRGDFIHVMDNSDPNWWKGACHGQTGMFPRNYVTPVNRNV

T1 sequence (P62993 whole entry): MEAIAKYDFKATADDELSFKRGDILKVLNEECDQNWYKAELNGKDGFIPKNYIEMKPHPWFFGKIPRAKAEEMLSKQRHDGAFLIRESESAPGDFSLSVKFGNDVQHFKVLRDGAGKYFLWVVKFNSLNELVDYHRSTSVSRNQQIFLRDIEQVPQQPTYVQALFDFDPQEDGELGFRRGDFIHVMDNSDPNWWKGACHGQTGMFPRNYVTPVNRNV
T2 sequence (P62993 whole entry): as above

Binder | fold change of the co-precipitated interaction, AD conditions (AICD + Aβ) relative to control [1] [fold] | fold change of the co-precipitated interaction, reversal condition (AICD + Aβ + Grb2-DsRed) relative to control [2] [fold] | fold change of the co-precipitated interaction, AD mouse brain relative to wild type [3] [fold]
B1 | 1.42 | 2.18 | 
B2 |  |  | 1.49
